Source: the RNAGym collection of RNA variant scans (doi:10.1021/acssynbio.7b00057)

B1: Pistol ribozyme (parent)
chain: GGGUCGUUGUUCCAUAAUCGCGUGGAUAUGGCACGCAAGUUUCUACCGGGCACCGUAAAUGUCCGACUGGAGCCGUUCGGGCGGCUAUAAACAGACCUCAGGCCCGAAGCGUGGCGGCACCUGCCGCCGGUGGUAAAAAAGAUCGGAAGAGCACACGUCU

Variants of: B1
Experiment: aptazyme ON/OFF ratio, guanine; higher = stronger switching; co-transcriptional cleavage with and without guanine

Variant | aptazyme ON/OFF ratio
U8A G9A U10G U11G | 1.07
U8A G9A U10G U11C | 1.05
U8A G9A U10G U11A | 1.02
U8A G9C U10C U11A C12A C13A | 1.04
U8A G9C U10C U11A C12A C13G | 1.05
U8A G9C U10C U11A C12A C13U | 1.13
U8A G9A U11A C12G C13U | 1.04
U8A G9A U11A C12G C13A | 1.11
U8A G9A U11A C12G C13G | 1.2
U8A G9C U10G C12G | 1.17
U8A G9C U10G C12A | 1.18
U8A G9C U10G C12U | 1.28
U8A G9A U10C U11G C12U C13U | 1.22
U8A G9A U10C U11G C12U C13A | 1.17
U8A G9A U10C U11G C12U C13G | 1.22
U8A G9C U10C C12U | 1.06
U8A G9C U10C C12G | 1.05
U8A G9C U10C C12A | 1.04
U8A G9A U11G C12G C13G | 1.26
U8A G9A U11G C12G C13A | 1.23
U8A G9A U11G C12G C13U | 1.27

Variant | aptazyme ON/OFF ratio
U8A G9C U10A U11G C12U C13U | 1.14
U8A G9C U10A U11G C12U C13A | 1.17
U8A G9C U10A U11G C12U C13G | 1.18
U8A G9C U10A U11A C12A | 1.25
U8A G9C U10A U11A C12U | 1.24
U8A G9C U10A U11A C12G | 1.37
U8A G9C U10A | 1.38
U8A G9C U10G | 1.54
U8A G9C U10C | 1.35
U8A G9C U10A U11C C12U C13U | 1.09
U8A G9C U10A U11C C12U C13A | 1.07
U8A G9C U10A U11C C12U C13G | 1.15
U8A G9A U10C U11C C13A | 1.03
U8A G9A U10C U11C C13U | 1.05
U8A G9A U10C U11C C13G | 1.03
U8A G9A U10G U11A C12U | 1.06
U8A G9A U10G U11A C12G | 1.24
U8A G9A U10G U11A C12A | 1.17
U8A G9C U10A U11G | 1.3
U8A G9C U10A U11C | 1.01
U8A G9C U10A U11A | 1.37

Variant | aptazyme ON/OFF ratio
U8A G9C U10C U11C C12A C13U | 1.03
U8A G9C U10C U11C C12A C13G | 1.01
U8A G9C U10C U11C C12A C13A | 1.04
U8A G9C U10C C12U C13A | 1.04
U8A G9C U10C C12U C13G | 1.03
U8A G9C U10C C12U C13U | 1.03
U8A G9C U10A U11A C12A C13A | 1.21
U8A G9C U10A U11A C12A C13G | 1.19
U8A G9C U10A U11A C12A C13U | 1.37
U8A G9C U10C C12A C13U | 0.995
U8A G9C U10C C12A C13A | 1.03
U8A G9C U10C C12A C13G | 1.08
U8A G9A U10C U11C C12A C13A | 1.07
U8A G9A U10C U11C C12A C13U | 1.02
U8A G9A U10C U11C C12A C13G | 1.1
U8A G9A U10G C12U | 1.5
U8A G9A U10G C12A | 1.2
U8A G9A U10G C12G | 1.16
U8A G9A U10G U11G C12A C13U | 1.3
U8A G9A U10G U11G C12A C13A | 1.12
U8A G9A U10G U11G C12A C13G | 1.27

Variant | aptazyme ON/OFF ratio
U8A G9A U11G C12U C13A | 1.23
U8A G9A U11G C12U C13G | 1.18
U8A G9A U11G C12U C13U | 1.51
U8A G9A U11C C12A C13U | 1.2
U8A G9A U11C C12A C13A | 1.07
U8A G9A U11C C12A C13G | 1.23
U8A G9C C12U | 1.3
U8A G9C C12G | 1.22
U8A G9C C12A | 1.37
U8A G9C C12U C13A | 1.21
U8A G9C C12U C13U | 1.2
U8A G9C C12U C13G | 1.15
U8A G9A U10C C12A C13A | 1.19
U8A G9A U10C C12A C13U | 1.18
U8A G9A U10C C12A C13G | 1.13
U8A G9C U10A U11A C13U | 1.22
U8A G9C U10A U11A C13G | 1.08
U8A G9C U10A U11A C13A | 1.16
U8A G9A U10G U11C C12G C13G | 1.14
U8A G9A U10G U11C C12G C13U | 1.18
U8A G9A U10G U11C C12G C13A | 1.16
